Data from patent US20090304577A1.
Each block holds one binder with its values, some of them ahead of it. No end group written: not given here.

What was measured:
[1] = molecular target: monoclonal anti-TCR Vβ antibody; test: ELISA OD with α-TCR Vβ on plate coated with CDR-H3 homodimer, against control (culture medium/PBS)
[2] = molecular target: monoclonal anti-TCR Vβ antibody; test: ELISA; plate coated with CDR-H3 homodimer, tested against α-TCR Vβ; mean ± SD of three observations
[3] = molecular target: monoclonal anti-TCR Vβ antibody; test: ELISA OD with α-TCR Vβ on plate coated with CDR-L3 homodimer, against control (culture medium/PBS)
[4] = molecular target: monoclonal anti-TCR Vβ antibody; test: ELISA; plate coated with CDR-L3 homodimer, tested against α-TCR Vβ; mean ± SD of three observations
[5] = molecular target: monoclonal anti-TCR Vβ antibody; test: ELISA OD with α-TCR Vβ on plate coated with CDR-H2 homodimer, against control (culture medium/PBS)
[6] = molecular target: monoclonal anti-TCR Vβ antibody; test: ELISA; plate coated with CDR-H2 homodimer, tested against α-TCR Vβ; mean ± SD of three observations

- Ratio Test/Control [1]: 2
- optical density [2]: 0.182 OD
Binder: CLRGLLPDY (also: homodimer, linkage not given here) [CDR-H3 homodimer peptide (SEQ ID NO:10 with an added N terminal cysteine, dimerised)]

- Ratio Test/Control [3]: 1.74
- optical density [4]: 0.243 OD
Binder: CQQYNSYPLT (also: homodimer, linkage not given here) [CDR-L3 homodimer peptide (SEQ ID NO:16 with an added N terminal cysteine, dimerised)]

- Ratio Test/Control [5]: 1.83
- optical density [6]: 0.307 OD
Binder: CNIYPSDSYTNYNQKFKD (also: homodimer, linkage not given here) [CDR-H2 homodimer peptide (SEQ ID NO:8 with an added N terminal cysteine, dimerised)]
